Source: PMC3518436

Target: beclin 1 (UniProt O88597)
Test: anti-BCL2 IP, beclin 1 blot
Conditions: sites T69,S70,S84

Substance	binding against the reference (reference: wild-type MEFs, starved)	binding against the reference (reference: wild-type muscle, exercised)
BCL2 (from UniProt P10417) BCL2 AAA MEFs, starved	stronger	–
BCL2 (from UniProt P10417) BCL2 AAA muscle, exercised	–	stronger
